Assay results from patent publication US20200024330A1.

What was measured:
Experiment in all cases: cell-based or functional assay
[1] = molecular target: HIV-1 Env of isolate MGRM-F1-018 (HIV-1)
[2] = molecular target: HIV-1 MGRM-Chronic-B-001 Env (pseudovirus) (HIV-1)
[3] = molecular target: HIV-1 Env of isolate MG RM-D-002 (subtype D) (HIV-1)
[4] = molecular target: HIV-1 MGRM-Chronic-B-008 Env (pseudovirus) (HIV-1)
[5] = molecular target: HIV-1 92UG005 envelope glycoprotein (Env) on pseudovirus (HIV-1)
[6] = molecular target: HIV-1 Env of isolate MGRM-G-024 (HIV-1)
[7] = molecular target: HIV-1 Env of isolate MGRM-F1-015 (HIV-1)
[8] = molecular target: HIV-1 MGRM-Chronic-B-011 Env (pseudovirus) (HIV-1)
[9] = molecular target: HIV-1 Env of isolate MGRM-C-022 (pseudovirus) (HIV-1 isolate MGRM-C-022, subtype C)
[10] = molecular target: HIV-1 Env of isolate MG RM-AG-002 (HIV-1)
[11] = molecular target: HIV-1 JR-CSF Env L179A (HIV-1 (isolate JR-CSF)) (UniProt P20871)
[12] = molecular target: HIV-1 APV6 envelope glycoprotein (Env) on pseudovirus (HIV-1)
[13] = molecular target: HIV-1 Env of isolate 98CN009 (subtype CRF07_BC) (HIV-1)
[14] = molecular target: HIV-1 JRCSF Env (pseudovirus) (HIV-1) (UniProt P20871)
[15] = molecular target: HIV-1 JR-CSF Env P470A (HIV-1 (isolate JR-CSF)) (UniProt P20871)
[16] = molecular target: HIV-1 Env of isolate MGRM-C-023 (pseudovirus) (HIV-1 isolate MGRM-C-023, subtype C)
[17] = molecular target: HIV-1 JR-CSF Env V127A (HIV-1 (isolate JR-CSF)) (UniProt P20871)
[18] = molecular target: HIV-1 Env of isolate MG RM-D-011 (subtype D) (HIV-1)
[19] = molecular target: HIV-1 Env of isolate MGRM-AG-003 (CRF_AG), on pseudovirus (HIV-1)
[20] = molecular target: HIV-1 Env of isolate MGRM-F1-010 (subtype F), on pseudovirus (HIV-1)
[21] = molecular target: HIV-1 Env of isolate PVO.4 (HIV-1)
[22] = molecular target: HIV-1 Env of isolate MGRM-F1-008 (subtype F), on pseudovirus (HIV-1)
[23] = molecular target: HIV-1 Env of isolate TRO.11 (HIV-1)
[24] = molecular target: HIV-1 Env of isolate MGRM-C-010 (HIV-1)
[25] = molecular target: HIV-1 Env of isolate JRCSF (HIV-1) (UniProt P20871)
[26] = molecular target: HIV-1 Env of isolate MGRM-D-014 (HIV-1)
[27] = molecular target: HIV-1 Env of isolate MGRM-D-018 (HIV-1)
[28] = molecular target: HIV-1 Env of isolate 92UG001 (HIV-1)
[29] = molecular target: HIV-1 Env of isolate 94KE105 (subtype AC), on pseudovirus (HIV-1)
[30] = molecular target: HIV-1 Env of isolate MGRM-D-018 (clade D) (HIV-1)

5345_I01 (PGT-137) (antibody), sequence (VH): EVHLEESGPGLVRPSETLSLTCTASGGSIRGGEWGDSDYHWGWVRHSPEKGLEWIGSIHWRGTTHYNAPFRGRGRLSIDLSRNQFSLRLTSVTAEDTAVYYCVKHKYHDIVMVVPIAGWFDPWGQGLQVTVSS
5345_I01 (PGT-137) (antibody), sequence (VL): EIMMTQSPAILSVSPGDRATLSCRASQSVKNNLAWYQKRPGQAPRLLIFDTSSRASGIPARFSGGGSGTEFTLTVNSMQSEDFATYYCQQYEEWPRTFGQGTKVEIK
5329_C19 (PGT-136) (antibody), sequence (VH): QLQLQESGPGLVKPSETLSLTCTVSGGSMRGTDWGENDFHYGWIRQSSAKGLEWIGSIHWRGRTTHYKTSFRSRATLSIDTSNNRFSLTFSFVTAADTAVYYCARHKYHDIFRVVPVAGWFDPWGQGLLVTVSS
5329_C19 (PGT-136) (antibody), sequence (VL): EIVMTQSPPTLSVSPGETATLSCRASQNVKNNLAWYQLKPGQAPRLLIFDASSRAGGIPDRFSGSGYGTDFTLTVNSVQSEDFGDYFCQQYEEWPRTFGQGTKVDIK

Substance | IC50 [1] [µg/mL] | IC50, pseudovirus neutralization [2] [µg/mL] | IC50 (µg/mL), pseudovirus neutralization [3] [µg/mL] | IC50 (ug/ml), neutralizing activity [5] [µg/mL] | IC50, pseudovirus neutralization [6] [µg/mL] | Fold IC50 increase relative to wild-type [11] [fold] | IC50 (ug/ml), neutralizing activity [12] [µg/mL] | Fold IC50 increase relative to wild-type [15] [fold] | Fold IC50 increase relative to wild-type [17] [fold] | IC50, single-round pseudovirus neutralization [19] [µg/mL] | IC50, pseudovirus neutralization [20] [µg/mL] | IC50 [21] [µg/mL] | IC50, pseudovirus neutralization [22] [µg/mL] | IC50 [23] [µg/mL] | IC50 [24] [µg/mL] | IC50 [25] [µg/mL] | IC50 [26] [µg/mL] | IC50 [27] [µg/mL] | IC50 [28] [µg/mL] | IC50, single-round pseudovirus neutralization [29] [µg/mL] | also measured
4858_P08 (PGT-123) (antibody) | 0.054 | 0.15 | 0.012 | 2.49 | 0.032 | 1.2 | 0.0327 | 0.8 | 1.2 |  |  |  |  |  |  |  |  |  |  |  | IC50, pseudovirus neutralization [4]: 0.01 µg/mL; IC50, pseudovirus neutralization [5]: 2.49 µg/mL; IC80, pseudovirus neutralization [5]: > 10 µg/mL; IC90 (pseudovirus neutralization) [5]: > 10 µg/mL; IC95, pseudovirus neutralization [5]: > 10 µg/mL; IC50 [7]: > 50 µg/mL; IC50, pseudovirus neutralization [8]: > 50 µg/mL; IC50 (µg/mL) neutralization [9]: 0.01 µg/mL; neutralization IC50 [10]: > 50 µg/mL; IC50, pseudovirus neutralization [12]: 0.0328 µg/mL; IC80, pseudovirus neutralization [12]: 0.145 µg/mL; IC90 (pseudovirus neutralization) [12]: 0.339 µg/mL; IC95, pseudovirus neutralization [12]: 0.726 µg/mL; IC50 (µg/mL), pseudovirus neutralization [13]: 0.007 µg/mL; IC50, pseudovirus neutralization [14]: 0.046 µg/mL; IC50 (µg/mL) neutralization [16]: 0.011 µg/mL; IC50 (µg/mL), pseudovirus neutralization [18]: 0.012 µg/mL
5114_A19 (PGT-128) (antibody) |  |  |  |  | 0.095 | 2.8 |  | 0.6 | 1.1 | 34.8 | 16.7 | 0.005 | > 50 | 0.018 | > 50 | 0.003 | 0.013 | 0.008 | > 50 | 0.007 | 
5123_A06 (PGT-125) (antibody) | > 50 | > 50 | 0.118 | > 10 | > 50 | 1.3 | 0.0359 | 1.6 | 0.9 |  |  |  |  |  |  |  |  |  |  |  | IC50, pseudovirus neutralization [4]: > 50 µg/mL; neutralization IC50 [5]: > 10 µg/mL; neutralization IC80 [5]: > 10 µg/mL; neutralization IC90 [5]: > 10 µg/mL; neutralization IC95 [5]: > 10 µg/mL; IC50 [7]: > 50 µg/mL; IC50, pseudovirus neutralization [8]: 3.23 µg/mL; IC50 (µg/mL) neutralization [9]: 1.23 µg/mL; neutralization IC50 [10]: > 50 µg/mL; neutralization IC50 [12]: 0.0359 µg/mL; neutralization IC80 [12]: 0.133 µg/mL; neutralization IC90 [12]: 0.288 µg/mL; neutralization IC95 [12]: 0.597 µg/mL; IC50 (µg/mL), pseudovirus neutralization [13]: 0.03 µg/mL; IC50, pseudovirus neutralization [14]: 0.004 µg/mL; IC50 (µg/mL) neutralization [16]: 1.31 µg/mL; IC50 (µg/mL), pseudovirus neutralization [18]: 0.008 µg/mL
5136_H01 (PGT-131) (antibody) |  |  |  |  | 10.7 | 4.8 |  | 1 | 0.6 | 2.92 | > 50 | > 50 | 2.74 | 1.91 | > 50 | 0.029 | 0.516 | 0.148 | > 50 | 0.013 | 
5141_B17 (PGT-126) (antibody) | 14.9 | > 50 | 0.039 | 0.0181 | > 50 | 2.6 | 0.0249 | 2.7 | 1.3 |  |  |  |  |  |  |  |  |  |  |  | IC50, pseudovirus neutralization [4]: 5.89 µg/mL; IC50 [7]: > 50 µg/mL; IC50, pseudovirus neutralization [8]: 0.108 µg/mL; IC50 (µg/mL) neutralization [9]: 0.96 µg/mL; neutralization IC50 [10]: > 50 µg/mL; IC50 (µg/mL), pseudovirus neutralization [13]: 0.019 µg/mL; IC50 [14]: 0.0061 µg/mL; IC50, pseudovirus neutralization [14]: 0.008 µg/mL; IC80 [14]: 0.018 µg/mL; IC90 [14]: 0.0339 µg/mL; IC95 [14]: 0.0608 µg/mL; IC50 (µg/mL) neutralization [16]: 0.065 µg/mL; IC50 (µg/mL), pseudovirus neutralization [18]: 0.009 µg/mL
5147_N06 (PGT-130) (antibody) |  |  |  | 0.474 | 5.84 | 2.4 | > 10 | 2.4 | 0.8 | 0.041 | > 50 | 5.17 | 0.065 | 0.257 | > 50 | 0.01 | 0.061 | 0.049 | > 50 | 0.004 | neutralization IC50 [30]: 0.0378 µg/mL; neutralization IC80 [30]: 0.289 µg/mL; neutralization IC90 [30]: 2.31 µg/mL; neutralization IC95 [30]: > 10 µg/mL
5329_C19 (PGT-136) (antibody) |  |  |  |  | 0.152 |  |  |  |  | > 50 | > 50 | > 50 | > 50 | 0.073 | > 50 | > 50 | > 50 | > 50 | > 50 | > 50 | 
5343_B08 (PGT-135) (antibody) |  |  |  |  | 0.062 | 1.2 |  | 0.8 | 1.4 | > 50 | > 50 | > 50 | > 50 | 0.03 | > 50 | 0.131 | 2.21 | 0.039 | > 50 | 0.063 | 
5345_I01 (PGT-137) (antibody) |  |  |  |  | 0.051 |  |  |  |  | > 50 | > 50 |  | > 50 | 9.35 | > 50 | > 50 | > 50 | 15.1 | > 50 | 18.5 | 
